Laboratory results reported in the supplement of paper PMC9170038.

Tests used:
MS2 coat protein = assay: apparent KD of MS2 coat protein; higher = weaker reporter binding; settings: Eterna round: R107
Method: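 RNA-MaP round R107: designed RNA switches with theophylline, tryptophan, arginine or FMN aptamers are transcribed on-chip within common flanks. They are titrated with SNAP-549-labelled MS2 coat protein in RNA-MaP buffer (100 mM Tris pH 7.5, 80 mM KCl, 4 mM MgCl2), without ligand or with the indicated ligand. Median apparent KD per design.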

[1] = system: K4 kissing-loop RNA reporter; assay: apparent KD of K4 kissing-loop reporter; higher = weaker reporter binding; settings: Eterna round: R107;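 further: bound reporter read as fluorescence of individual clusters on recovered sequencing chips by microscopy, with normalized cluster intensities fitted with a binding model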
Method: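 RNA-MaP round R107: designed RNA switches with theophylline, tryptophan, arginine or FMN aptamers are transcribed on-chip within common flanks. They are titrated with a labelled K4 kissing-loop RNA reporter in RNA-MaP buffer (100 mM Tris pH 7.5, 80 mM KCl, 4 mM MgCl2), without ligand or with the indicated ligand. Median apparent KD per design.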

[2] = input ligand: theophylline 20 uM
[3] = input ligand: tryptophan 2.4 mM
[4] = input ligand: theophylline 2 mM

## AAAACACAUGAGGAUCACCCAUGUCGUGAUACCAGUCAACAUGAGGACCCUUGGCAGCAUAAAAUGGGUAACAUGAGGAUAACCC [AstrosEXyTheA#3]
MS2 coat protein; input ligand: arginine 13.2 mM
  apparent KD of MS2 coat protein: 75.4 nM
MS2 coat protein; [2]
  apparent KD of MS2 coat protein: 105 nM
MS2 coat protein; [3]
  apparent KD of MS2 coat protein: 101 nM

## AAAAUAAAUAAAACGCGUAACAUGAAGGAUACCAGCCAGAAAACUGGCCCUUGGCAGCCUCUACAUGAGGAUCACCCAUGUCGCG [Mat - Same State Theophlline A - Mod of Eli - D15]
MS2 coat protein; input ligand: arginine 13.2 mM
  apparent KD of MS2 coat protein: 161 nM
MS2 coat protein; [2]
  apparent KD of MS2 coat protein: 141 nM
MS2 coat protein; [3]
  apparent KD of MS2 coat protein: 332 nM

## AAACAUGAGGAUCACCCAUGUAUACUUAGACGAGGACCGGUACGGCCGCCACUCGAACUUCAAGAUUUGGCGGAAAAUGUAUGUA [JR_ExcTryptoA_Sub022]
MS2 coat protein; input ligand: arginine 13.2 mM
  apparent KD of MS2 coat protein: 9.71 nM
MS2 coat protein; [2]
  apparent KD of MS2 coat protein: 13 nM
MS2 coat protein; [4]
  apparent KD of MS2 coat protein: 12.1 nM

## AAACAUGAGGAUCACCCAUGUUGAGGAUCACGAGGACCGGUACGGCCGCCACUCGACAUGAGGAUCACCCAUGUGAGGAUCACCC [Same State - Tryptophan A #1]
MS2 coat protein; input ligand: arginine 13.2 mM
  apparent KD of MS2 coat protein: 52.5 nM
MS2 coat protein; [2]
  apparent KD of MS2 coat protein: 214 nM
MS2 coat protein; [4]
  apparent KD of MS2 coat protein: 337 nM

## AAACGUUGCUGCGAUACCAGACAUGAGGAUCACCCAUGUACCAAGGUAACCGAAAGGCAUGUCCCUUGGCAGCGCAGCAACGAAA [MAT - Exclusion Theophlline B - Mod of Eli - D17]
MS2 coat protein; input ligand: arginine 13.2 mM
  apparent KD of MS2 coat protein: 14.8 nM
MS2 coat protein; input ligand: none
  apparent KD of MS2 coat protein: 11.1 nM
MS2 coat protein; [2]
  apparent KD of MS2 coat protein: 18.9 nM
MS2 coat protein; [4]
  apparent KD of MS2 coat protein: 262 nM
MS2 coat protein; [3]
  apparent KD of MS2 coat protein: 13.5 nM

## AAACGUUGCUGCGAUACCAGACAUGAGGAUCACCCAUGUACCGAGGUACCCGAAAGGAAUGUCCCUUGGCAGCGCAGCAACGAAA [MAT - Exclusion Theophlline B - Mod of Eli - D24]
MS2 coat protein; input ligand: arginine 13.2 mM
  apparent KD of MS2 coat protein: 11.2 nM
MS2 coat protein; input ligand: none
  apparent KD of MS2 coat protein: 11.7 nM
MS2 coat protein; [2]
  apparent KD of MS2 coat protein: 15.3 nM
MS2 coat protein; [4]
  apparent KD of MS2 coat protein: 124 nM
MS2 coat protein; [3]
  apparent KD of MS2 coat protein: 11.7 nM

## AAAGAUCGGAAACGAUCGGCGGCUUGGGCGCGAGGACCGGUACGGCCGCCACUCGGGAAACAUGAGGAUCACCCAUGUUGCUUCU [ETA NP+V+V2 #16]
MS2 coat protein; input ligand: arginine 13.2 mM
  apparent KD of MS2 coat protein: 10 nM
MS2 coat protein; [2]
  apparent KD of MS2 coat protein: 12.5 nM
MS2 coat protein; [4]
  apparent KD of MS2 coat protein: 11.9 nM

## AAAGGACAUGAGGAUCACCCAUGUCUCGAUACCAGCCGAUCAUCAGGCCCUUGGCAGCGAGACAAGGGUCAUGGAUCGCGGUUCU [Beerusmage]
MS2 coat protein; input ligand: arginine 13.2 mM
  apparent KD of MS2 coat protein: 11.7 nM
MS2 coat protein; input ligand: none
  apparent KD of MS2 coat protein: 11.4 nM
MS2 coat protein; [2]
  apparent KD of MS2 coat protein: 17.4 nM
MS2 coat protein; [4]
  apparent KD of MS2 coat protein: 12.3 nM
MS2 coat protein; [3]
  apparent KD of MS2 coat protein: 13.9 nM

## AAAGGCGGGCAGGAUACCAGCGCUAACAUGAGGAUCACCCAUGUACAAAUAAUAACAUGGUGCCCUUGGCAGCCUGGGCGUCUGC [Usedlati]
MS2 coat protein; input ligand: arginine 13.2 mM
  apparent KD of MS2 coat protein: 26.6 nM
MS2 coat protein; [2]
  apparent KD of MS2 coat protein: 150 nM
MS2 coat protein; [3]
  apparent KD of MS2 coat protein: 61.3 nM

## UUACUACCCAGUGAUGUUGGGUAGCGGCCACGAGGACCGGUACGGCCGCCACUCGAGGUUCGGGAGUGAUGUUCCUACUAUUUGG [Same state Tryptophan A GF 6]
[1]; input ligand: FMN 200 uM
  apparent KD of K4 kissing-loop reporter: 328 nM
[1]; input ligand: arginine 13.2 mM
  apparent KD of K4 kissing-loop reporter: 341 nM
[1]; input ligand: none
  apparent KD of K4 kissing-loop reporter: 360 nM
[1]; [2]
  apparent KD of K4 kissing-loop reporter: 402 nM
[1]; [3]
  apparent KD of K4 kissing-loop reporter: 160 nM

## UUAGAGAUCUCAGGAUAUCAGUGAUGUUGGUAUCAAGAUCUGAGAUAGAAUUCUAUCUCAGAUCAAUGAGAAGGGAGAUCUCAUU [AK3.3 Exc FMN B]
[1]; input ligand: FMN 200 uM
  apparent KD of K4 kissing-loop reporter: 374 nM
[1]; input ligand: arginine 13.2 mM
  apparent KD of K4 kissing-loop reporter: 110 nM
[1]; input ligand: none
  apparent KD of K4 kissing-loop reporter: 105 nM
[1]; [2]
  apparent KD of K4 kissing-loop reporter: 176 nM
[1]; [3]
  apparent KD of K4 kissing-loop reporter: 118 nM

## UUAGCCUAGCCAUAGUGAUGUUGUGGAAUACGAGGACCGGUACGGCCGCCACUCGCUCGACGGUGAUGACAUCAACGACCUUUAU [theeternabot_sameState_KL_Trp_A_38]
[1]; input ligand: FMN 200 uM
  apparent KD of K4 kissing-loop reporter: 312 nM
[1]; input ligand: arginine 13.2 mM
  apparent KD of K4 kissing-loop reporter: 304 nM
[1]; input ligand: none
  apparent KD of K4 kissing-loop reporter: 311 nM
[1]; [2]
  apparent KD of K4 kissing-loop reporter: 314 nM
[1]; [3]
  apparent KD of K4 kissing-loop reporter: 285 nM

## UUAGCGACAAGUCAGAUUCUGACAAUUGAUACCAGAUAGAAUUCUAUCCCUUGGCAGCAGUGAUGUUGUUGCAAUAAGUCGCAUU [AK2 Exc Theophylline A]
[1]; input ligand: FMN 200 uM
  apparent KD of K4 kissing-loop reporter: 322 nM
[1]; input ligand: arginine 13.2 mM
  apparent KD of K4 kissing-loop reporter: 253 nM
[1]; input ligand: none
  apparent KD of K4 kissing-loop reporter: 317 nM
[1]; [2]
  apparent KD of K4 kissing-loop reporter: 282 nM
[1]; [3]
  apparent KD of K4 kissing-loop reporter: 266 nM

## UUAGCUCUAUAGAGCAAGAGGUCAACUGAUACCAGAGGCUAUAGCCUCCCUUGGCAGCGGAACGAGUGAUGUUCGAGACCUCAUU [AK6 SS Theophylline A]
[1]; input ligand: FMN 200 uM
  apparent KD of K4 kissing-loop reporter: 1280 nM
[1]; input ligand: arginine 13.2 mM
  apparent KD of K4 kissing-loop reporter: 816 nM
[1]; input ligand: none
  apparent KD of K4 kissing-loop reporter: 1560 nM
[1]; [2]
  apparent KD of K4 kissing-loop reporter: 750 nM
[1]; [3]
  apparent KD of K4 kissing-loop reporter: 1440 nM

## UUAGGAGUGGAAGGAUAUCCUGGUGUGGGUGAUGUUAGUGAUGUUGGAGGUGCAGUGAUGUUGCGCGGAGAAGGUCCGGUGUUGA [BDazzled - #5 - Exc. FMN B]
[1]; input ligand: FMN 200 uM
  apparent KD of K4 kissing-loop reporter: 280 nM
[1]; input ligand: arginine 13.2 mM
  apparent KD of K4 kissing-loop reporter: 299 nM
[1]; input ligand: none
  apparent KD of K4 kissing-loop reporter: 372 nM
[1]; [2]
  apparent KD of K4 kissing-loop reporter: 435 nM
[1]; [3]
  apparent KD of K4 kissing-loop reporter: 263 nM

## UUAGGAGUGGGAGGAUAUCCUAAUGUGGGUGAUGUUAGCGAUGUUGAAAGUGUAGUGAUGUUGUGCGGAGAAGGUCCAGUGUUGA [BDazzled - #12 - Exc. FMN B]
[1]; input ligand: FMN 200 uM
  apparent KD of K4 kissing-loop reporter: 197 nM
[1]; input ligand: arginine 13.2 mM
  apparent KD of K4 kissing-loop reporter: 141 nM
[1]; input ligand: none
  apparent KD of K4 kissing-loop reporter: 175 nM
[1]; [2]
  apparent KD of K4 kissing-loop reporter: 269 nM
[1]; [3]
  apparent KD of K4 kissing-loop reporter: 168 nM

## UUAGUCUAGAGAAGGAGCGCAGUGAUGUUGCGAAUAAUAAUAAUAAUAAAUAAAUAAUCGAUGCAGGUAGGUCGCUCUAGACAUU [AK1 Exc Arginine B]
[1]; input ligand: FMN 200 uM
  apparent KD of K4 kissing-loop reporter: 217 nM
[1]; input ligand: arginine 13.2 mM
  apparent KD of K4 kissing-loop reporter: 422 nM
[1]; input ligand: none
  apparent KD of K4 kissing-loop reporter: 288 nM
[1]; [2]
  apparent KD of K4 kissing-loop reporter: 335 nM
[1]; [3]
  apparent KD of K4 kissing-loop reporter: 213 nM

## UUAUAACCCAGUGAUGUUGGGUAGCGGCCACGAGGACCGGUACGGCCGCCACUCGAGGUUUAACCAGUGAUGUUGGACUAUAUAA [Same state Tryptophan A GF 4]
[1]; input ligand: FMN 200 uM
  apparent KD of K4 kissing-loop reporter: 51 nM
[1]; input ligand: arginine 13.2 mM
  apparent KD of K4 kissing-loop reporter: 35.2 nM
[1]; input ligand: none
  apparent KD of K4 kissing-loop reporter: 47 nM
[1]; [2]
  apparent KD of K4 kissing-loop reporter: 34.5 nM
[1]; [3]
  apparent KD of K4 kissing-loop reporter: 23.7 nM

## UUAUACUCAUGUAAAGAACUAGUAACCGAAGGAGCGACAUAAAAGUCAGGUAGGUCGCGGAUUUCUCAGUGAUGUUGAGAGCAUU [JR_SSArginiA_Sub012]
[1]; input ligand: FMN 200 uM
  apparent KD of K4 kissing-loop reporter: 109 nM
[1]; input ligand: arginine 13.2 mM
  apparent KD of K4 kissing-loop reporter: 192 nM
[1]; input ligand: none
  apparent KD of K4 kissing-loop reporter: 121 nM
[1]; [2]
  apparent KD of K4 kissing-loop reporter: 185 nM
[1]; [3]
  apparent KD of K4 kissing-loop reporter: 93.9 nM

## UUAUUAUUCAGUGAUGUUGAAUUUAUUUCAGAGGAUAUGCAUAAAUGCAGAAGGCUGUAAUACUAUACUUUAAUAAAUUAAAUUU [JR_SSFMNA_Sub018]
[1]; input ligand: FMN 200 uM
  apparent KD of K4 kissing-loop reporter: 242 nM
[1]; input ligand: arginine 13.2 mM
  apparent KD of K4 kissing-loop reporter: 250 nM
[1]; input ligand: none
  apparent KD of K4 kissing-loop reporter: 248 nM
[1]; [2]
  apparent KD of K4 kissing-loop reporter: 262 nM
[1]; [3]
  apparent KD of K4 kissing-loop reporter: 203 nM
